The source of these data is publication PMC11074299.

This assay addresses T1, wild-type full-length FADD (FADD^FuL) (human), Q13158.
T1 chain: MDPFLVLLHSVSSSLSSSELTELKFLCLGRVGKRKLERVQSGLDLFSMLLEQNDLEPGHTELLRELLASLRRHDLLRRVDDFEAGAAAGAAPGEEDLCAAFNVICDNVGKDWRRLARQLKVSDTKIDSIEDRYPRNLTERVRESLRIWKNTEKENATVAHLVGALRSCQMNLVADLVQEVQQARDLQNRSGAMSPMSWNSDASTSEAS
The assay is described as follows: cryo-EM structure; FA^FuL-C8^FuL_FGLG_CADA-CF complex; Complex A without cross-linking (7.5 Å) and Complex B stabilised by GraFix, glutaraldehyde (3.7 Å); Casp-8 protease domain and FADD DD not visible. The note with it: remark: other sources report otherwise.

B1: wild-type full-length FADD (FADD^FuL), Q13158 1-208 (natural protein)
chain: T1 chain
One may read the stoichiometry N as a count of units in the complex or per binding partner. On to B1, for which the stoichiometry N is 3.
